These results are taken from patent EP2506881B1.

Experiment [1] deals with Trop-2 (human) (UniProt P09758). The experiment is described as follows: ELISA on Trop-2-expressing cell lines PC-3 and Calu-3, apparent KD. On the technique in general: In an ELISA, binding on a coated surface is turned into a signal by an enzyme label.
Experiment [2] has the same target. The experiment can be described thus: cell-based or functional assay.
Experiment [3] has the same target. The experiment can be described thus: ELISA on Trop-2-expressing cell lines PC-3 and Calu-3.

Sequence of UniProt P09758 (P09758 27-323): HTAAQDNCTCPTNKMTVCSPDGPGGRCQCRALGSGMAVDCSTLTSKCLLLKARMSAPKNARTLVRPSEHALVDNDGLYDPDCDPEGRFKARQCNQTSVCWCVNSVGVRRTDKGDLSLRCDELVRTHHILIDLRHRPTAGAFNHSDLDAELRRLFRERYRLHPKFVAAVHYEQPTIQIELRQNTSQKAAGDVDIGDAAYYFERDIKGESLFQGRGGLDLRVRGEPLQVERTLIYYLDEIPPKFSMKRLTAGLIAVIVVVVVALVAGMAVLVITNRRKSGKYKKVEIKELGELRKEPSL

As to “2L-Rap(Q)-hRS7 (from UniProt P22069 1-104)”, in the experiment with Trop-2 (human) [1], the Kd came out at 0.28 nM. Besides, in the experiment with Trop-2 (human) [2], the EC50, MTS cell proliferation assay, Calu-3 cells is 8.5 nM; the EC50, MTS cell proliferation assay, MDA-MB-468 cells stood at 3.8 nM; the EC50, MTS cell proliferation assay, ME-180 cells was 1.5 nM; the EC50, MTS cell proliferation assay, T-47D cells is 2 nM. The fold of apparent KD against hRS7 with Trop-2 (human) [3] was 2 fold.

B1: humanized RS7 anti-Trop-2 antibody (hRS7 IgG) (antibody, INN chains, looked up, V domains shown)
VH: QVQLQQSGSELKKPGASVKVSCKASGYTFTNYGMNWVKQAPGQGLKWMGWINTYTGEPTYTDDFKGRFAFSLDTSVSTAYLQISSLKADDTAVYFCARGGFGSSYWYFDVWGQGSLVTVSS
VL: DIQLTQSPSSLSASVGDRVSITCKASQDVSIAVAWYQQKPGKAPKLLIYSASYRYTGVPDRFSGSGSGTDFTLTISSLQPEDFAVYYCQQHYITPLTFGAGTKVEIK
modifications: IgG
On to B1, for which the Kd with Trop-2 (human) [1] worked out at 0.14 nM.
